Experimental data published in US20200279616A1.

T1: HLA-DRB1*01:01 (biochemical MHC-peptide affinity assay) (human)
T1 chain 1: not shown
T1 chain 2: not shown

T2: HLA-DRB1*11:01 (biochemical MHC-peptide affinity assay) (human)
T2 chain 1: not shown
T2 chain 2: not shown


molecular target: T3, Thrombin digested soluble HLA-DRB1*15:01 (CLIP0 placeholder construct) (human); test: FP probe displacement; probe m27

First: PPIDGYPNHPCFEPE (modifications not checked) [M230]
Second: ASLRSWPSTWAPWAS (modifications not checked) [M371]
The % inhibition of probe binding at 0.1uM of the first is higher: 49% for the first, 46% for the second.

First: PQILPYPAPEEAQEN (modifications not checked) [M231]
Second: LLRPGQIVAFDSTAQ (modifications not checked) [M248]
The % inhibition of probe binding at 0.1uM of the first is higher: 21% for the first, 1% for the second.

PQLRQWWAQGADPLA (modifications not checked) [M247] showed a % inhibition of probe binding at 0.1uM of 42%.

Going from PPIDGYPNHPCFEPE (modifications not checked) [M230] to ASLRSWPSTWAPWAS (modifications not checked) [M371], the % inhibition of probe binding at 1uM falls from 79% to 58%.

Going from PQILPYPAPEEAQEN (modifications not checked) [M231] to LLRPGQIVAFDSTAQ (modifications not checked) [M248], the % inhibition of probe binding at 1uM falls from 50% to 6%.

PQLRQWWAQGADPLA (modifications not checked) [M247] was tested, and the % inhibition of probe binding at 1uM was 50%.

First: PPIDGYPNHPCFEPE (modifications not checked) [M230]
Second: ASLRSWPSTWAPWAS (modifications not checked) [M371]
The % inhibition of probe binding at 10uM of the first is higher: 82% for the first, 74% for the second.

First: PQILPYPAPEEAQEN (modifications not checked) [M231]
Second: LLRPGQIVAFDSTAQ (modifications not checked) [M248]
The % inhibition of probe binding at 10uM of the first is higher: 66% for the first, 61% for the second.

With PQLRQWWAQGADPLA (modifications not checked) [M247] the % inhibition of probe binding at 10uM was 58%.

Molecular target: T1, HLA-DRB1*01:01 (biochemical MHC-peptide …)
Test: biochemical MHC-peptide affinity assay

First: DRYEMEDGKVIER (modifications not checked)
Second: DKKNIILEEGKEILVG (modifications not checked)
The Measured affinity of the first is 2-fold higher: 54 nM for the first, 27 nM for the second.

First: GHPDLQGQPAEEIFES (modifications not checked)
Second: MPSFVPSDGRQAAD (modifications not checked)
The Measured affinity of the first is 63-fold higher: 189 nM for the first, 3 nM for the second.

Going from GLRYKKLHDPKGWIT (modifications not checked) to GVQRGLVGEIIKR (modifications not checked), the Measured affinity falls from 30 nM to 8 nM (3.8-fold).

First: TWFNQPARKIR (modifications not checked)
Second: SPHAFKTESGEETDL (modifications not checked)
The Measured affinity of the first is 42-fold lower: 8 nM for the first, 333 nM for the second.

Molecular target: T2, HLA-DRB1*11:01 (biochemical MHC-peptide …)
Test: biochemical MHC-peptide affinity assay

Compared with EGEYQGIPRAESGG (modifications not checked), IAGEWQVLHREGAIT (modifications not checked) is 4.5-fold lower in Measured affinity: 159 nM for the first, 35 nM for the second.

First: EPAEFIIDTRDAGYG (modifications not checked)
Second: DLEELEVLERKPAAG (modifications not checked)
The Measured affinity of the first is 3.1-fold higher: 195 nM for the first, 63 nM for the second.

First: GMNIVEAMERFGSRNG (modifications not checked)
Second: GPFSFSVIDKPPG (modifications not checked)
The Measured affinity of the first is 2.6-fold lower: 79 nM for the first, 209 nM for the second.

Going from LNELKPISKGGHSS (modifications not checked) to DVNEYAPVFKEKSYK (modifications not checked), the Measured affinity rises from 67 nM to 223 nM (3.3-fold).

First: LAPTWEELSKKEFPG (modifications not checked)
Second: TRNEVIPMSHPGAVD (modifications not checked)
The Measured affinity of the first is 4.8-fold higher: 174 nM for the first, 36 nM for the second.

Compared with ENPYFAPNPKIIRQ (modifications not checked), YEDKFRNNLKGKRLD (modifications not checked) is 2-fold higher in Measured affinity: 128 nM for the first, 254 nM for the second.

With GQQWTYEQRKIVE (modifications not checked) the Measured affinity was 145 nM.

molecular target: T3, Thrombin digested soluble …; test: differential scanning fluorometry after peptide exchange (Sypro orange)

First: PPIDGYPNHPCFEPE (modifications not checked) [M230]
Second: ASLRSWPSTWAPWAS (modifications not checked) [M371]
The DTm (sample Tm - control Tm) of the first is higher: 21.4 for the first, 19.9 for the second.

Compared with PQILPYPAPEEAQEN (modifications not checked) [M231], LLRPGQIVAFDSTAQ (modifications not checked) [M248] is lower in DTm (sample Tm - control Tm): 15.6 for the first, 5.6 for the second.

Molecule PQLRQWWAQGADPLA (modifications not checked) [M247] has a DTm (sample Tm - control Tm) of 20.1.

PQILPYPAPEEAQEN (modifications not checked) [M231] was tested, and the Average Tm was 73.9.

molecular target: HLA monomer of the STII-TR-FRET peptide exchange assay (secreted HLA class II alpha/beta heterodimer; allele not stated); test: TR-FRET peptide exchange titration on 20nM DRB1*01:01 (STII-CLIP), 37C; displaced: m2

Work on CLIP (peptide) yielded an IC50 (read off the curve) of 70 nM.
